Data published in patent US20100105141, “Sulfonylurea-Responsive Repressor Proteins” (Pioneer Hi-Bred International, Inc., published 2010).

Target: L7-1F08-A11 (L7-A11, EsR2) (synthetic, UniProt P04483 SEQ:1-207, L55M,H64A,F67Y,F86M,H100C,R104G,P105F,K108Q,L113A,Q116S,L134M,S135Q,H139I,F140Y, …)
Experiment: EMSA; 5 pmol DNA, 20 mM Tris-HCl pH 8.0, 10 mM EDTA, RT 0.5 h; released by ethametsulfuron dose-dependently, less by chlorsulfuron; no change with atc
Details: chain copies: 2
Procedure: Five pmol of TetO or control DNA was mixed with the indicated amounts (FIG. 7) of ethametsulfuron repressor protein (L7A11) or BSA control with or without inducer in complex buffer containing 20 mM Tris-HCl (pH8.0) and 10 mM EDTA. The mixture was incubated at room temperature for 0.5 hour before loading onto the gel. The reaction was electrophoresed on a Novex 6% DNA retardation gel (Invitrogen, EC6365BOX) at room temperature, 38 V in 0.5×TBE buffer for about 2 hours. DNA was detected by ethidium bromide staining.

B1: tetO 48 bp (dsDNA)
DNA 1: CCTAATTTTTGTTGACACTCTATCATTGATAGAGTTATTTTACCACTC
DNA 2: GAGTGGTAAAATAACTCTATCAATGATAGAGTGTCAACAAAAATTAGG
  binding result: binds
